20 substances from patent US20140087991A1, “PEPTIDE PRODRUGS” (The Johns Hopkins University, priority 2006, published 2014) can be followed below.

Holding throughout (format): biochemical
Experiment [1] deals with T1, FAP (Homo sapiens, UniProt Q12884).
T1 construct: the extracellular domain of FAP was cloned with a His-6 tag; made in house
T1 sequence (Q12884 26-760 limits assumed): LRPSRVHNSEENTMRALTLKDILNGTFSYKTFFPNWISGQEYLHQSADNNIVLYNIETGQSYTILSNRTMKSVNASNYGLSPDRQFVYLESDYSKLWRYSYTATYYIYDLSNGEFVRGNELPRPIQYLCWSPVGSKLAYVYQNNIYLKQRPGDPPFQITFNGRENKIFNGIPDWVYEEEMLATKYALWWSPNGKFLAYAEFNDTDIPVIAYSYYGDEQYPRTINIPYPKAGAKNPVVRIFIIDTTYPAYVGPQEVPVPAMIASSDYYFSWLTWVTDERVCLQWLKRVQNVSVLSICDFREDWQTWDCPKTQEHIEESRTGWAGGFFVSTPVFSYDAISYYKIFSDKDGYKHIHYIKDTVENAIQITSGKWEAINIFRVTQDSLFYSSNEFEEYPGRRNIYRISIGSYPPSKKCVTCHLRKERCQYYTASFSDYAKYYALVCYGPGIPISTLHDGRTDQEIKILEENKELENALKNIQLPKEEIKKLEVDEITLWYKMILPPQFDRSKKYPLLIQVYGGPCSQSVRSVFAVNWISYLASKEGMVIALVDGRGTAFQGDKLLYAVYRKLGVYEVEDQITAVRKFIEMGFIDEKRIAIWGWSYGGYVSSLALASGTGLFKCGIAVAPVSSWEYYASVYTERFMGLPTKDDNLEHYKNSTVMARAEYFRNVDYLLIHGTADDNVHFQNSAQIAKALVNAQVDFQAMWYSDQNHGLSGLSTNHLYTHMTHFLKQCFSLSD
Description: FAP gelatinase and collagenase assay with quenched (DQ) proteins. The protocol:
Quenched gelatin and collagen conjugates were used to detect and confirm FAP's gelatinase and collagenase activity. DQ™ Gelatin from pig skin, DQ™ collagen, type IV from human placenta, DQ™ collagen, type I from bovine skin, all as fluorescent conjugates (Invitrogen, Rockville, Md.) were digested with FAP and digestion monitored on a fluorescence plate reader. Protein substrates were dissolved in reaction buffer (100 mM NaCl, 100 mM Tris, pH 7.8) to a final concentration of 100 μgs/ml. Trypsin digestion was used as a positive control. As a negative control the His tagged extra cellular domain of Prostate Specific Membrane Antigen (PSMA), which was similarly purified from S2 cells under the same conditions as FAP. Fluorescent quenched DQ™ Bovine Serum Albumin was used as a negative control for FAP protease activity.
Quenched forms of Gelatin and Collagen were used to confirm the gelatinase and collagenase activity of recombinant FAP. Quenching is achieved by labeling these proteins with the fluorophore FITC such that fluorescence signal from the intact protein is minimal due to is self-quenching by the fluorphore. Protein digestion releases FITC-labeled fragments that result in measurable increase in overall fluorescence signal from the reaction mixture. […] On a relative basis gelatin was digested ˜10-fold better by FAP than collagen I. MALDI analysis of digested fragments was performed to confirm hydrolysis.

Experiment [2] has as its target T1, FAP. Description: LC-MS/MS cleavage map of FAP digest of 100 kDa recombinant human gelatin. The conditions noted are these: 100 kDa gelatin digest; for Percentage: share of all occurrences. The procedure: (§1) Human collagen I (Becton Dickinson, Franklin Lakes, N.J.) and recombinant human gelatins of 100 KDa and 8.5 KDa (Fibrogen, San Francisco, Calif.) were dissolved in reaction buffer to a final concentration of 100-300 μg/ml. 0.5-1 μg of FAP was added per 100 μgs of protein substrate. Digestion was done for 4-6 hrs at 37° C. As a positive control trypsin digestion was used. As a negative control, protein solutions were incubated either with BSA or buffer only. Peptide fragments of a size <30 KDa were purified using 30 KDa Microcon spin filter (Millipore, Billerica, Mass.).
(§2) Peptides obtained from FAP/gelatin digests were dried using a speedvac (Eppendorf), resuspended in LC/MS loading buffer (3% ACN, 0.1% formic acid), and analyzed using nano-flow LC/MS/MS on an Agilent 1100 series nano-LC system (Agilent) coupled to an LCQ Duo ion trap mass spectrometer (ThermoFinnigan). Peptides were pre-concentrated on a 5 mm Zorbax C18 trap column (Agilent) and then eluted onto a 100×0.075 mm custom-packed Biobasic C18 (ThermoElectron) reversed phase capillary column connected to a laser-pulled electrospray ionization emitter tip (New Objective) at a flowrate of 300 nl/min Peptides were eluted the nanospray source of the LCQ (Proxeon, Denmark) using the following gradient: 0% B at 0 min, 5% B at 8 min, 45% B at 50 min, 90% B at 55 min, 90% B at 60 min (B=0.1% formic acid in acetonitrile) at a spray voltage of 2.5 kV. The LCQ was operated in data-dependent mode using the Xcalibur software (ThermoFinnigan) in which every MS scan (400-1800 m/z) was followed by MS/MS scans (400-1800 m/z) on the 3 most intense ions using an isolation window of ±1.5 Da. Ions selected for MS/MS fragmentation were dynamically excluded for 30 s.
(§3) MS/MS data were searched against a collagen FASTA database using the SEQUEST search algorithm built into the Bioworks Browser (ThermoFinnigan) allowing for the variable modification of Methionine oxidation. Peptides were initially filtered in a charge dependent manner using an XCorr filter of 1.5, 2, and 2.5 for singly, doubly, and triply charged peptides. All MS/MS spectra used to identify peptides were manually inspected for validation of y and b-ion series. To quantify the relative abundance of each identified peptide we compared the ion current for each of the observed peptide parent ions from the MS spectra. The contribution of each parent ion to the total ion current was extracted and integrated over the peptide elution peak.
To resolve each particular mass fragment a Liquid Chromatograpy (LC) and Tandem mass spectroscopy (MS-MS) [LC-MS-MS] method was developed. Using this method, peptide fragments from FAP digests of the 8.5 kDa and 100 kDa recombinant gelatin were time-resolved by nano reverse phase LC (FIGS. 12 and 14) and then sequenced using an ion trap mass spectrometer operating in MS/MS mode. Initial methodological issues were worked out using the 8.5 kDa fragment before analyzing the entire 100 kDa protein. MS/MS spectra were searched against the 8.5 kDa and 100 kDa gelatin sequences using the SEQUEST algorithm with no cleavage specificity. Most of the identified cleavage sites in both sized gelatins occurred after Proline. However, FAP cleavage sites in these gelatins were not restricted to Proline alone. FAP was also found to cleave after Ala (e.g. A/A, A/G, A/P, A/R), Asp (e.g. D/G, D/T), Gly (e.g. G/A, G/E, G/L, G/Q, G/P, G/V), Glu (i.e., E/P), Lys (i.e., K/A, K/G), Ser (e.g. S/P) and Val (e.g. V/G).
To identify the most preferentially cleaved sites, we relatively quantified the abundance of each of the identified peptides by integrating the ion current generated by each peptide throughout the chromatogram. After identification of a peptide from a MS/MS spectrum, we extracted the ion current for the parent mass of the ion from the total MS ion chromatogram using a 1.5 Da tolerance window, and then integrated under the peak (FIGS. 12 and 14). […]

The target in experiment [3] is T1, FAP. The experiment can be described thus: LC-MS/MS cleavage map of FAP digest of 8.5 kDa recombinant human gelatin. The settings on record: 8.5 kDa gelatin digest; for Normalized Ion Current: peak with lowest ion current assigned 1.0. The procedure: as §1, §2, §3
As Collagen I and Gelatin are currently the only known protein substrates for FAP, we needed to develop an alternative method to identify FAP-selective cleavage sites within these proteins. […] The masses of fragments <3 KDa were purified for MALDI spectra and again analyzed by FindPept tool. […]

As for Gelatin, the “digestion by FAP relative to collagen I” value in experiment [1] is approximately 10 fold. For the same substance, the “hydrolysis of FITC-quenched protein by FAP” value in experiment [1] (100 μgs/ml protein substrate) is on record as “readily hydrolyzed”.

On to “P.KGAAGEPGKAGERGVPGPPGAVGP.A: FAP cleavage fragment of 100 kDa and 8.5 kDa recombinant human gelatin, MH+ 2113.12”, for which, in experiment [2], the Occurences came out at 5 and the Percentage worked out at 2.38. Moreover, the “Normalized Ion Current” value in experiment [3] was 46.8.

For the substance “P.GGPPGPKGNSGEPGAPGSKGD.T: FAP cleavage fragment, 100 kDa recombinant human gelatin”, in experiment [2], the Occurences was determined as 1 and the Percentage is listed as 0.48.

On to “P.AGKDGEAGAQGPPGP.A: FAP cleavage fragment of 100 kDa and 8.5 kDa recombinant human gelatin, MH+ 1308.62 (PAGKDGEAGAQGPPGPA)”, for which, in experiment [2], the Occurences is 2 and the Percentage worked out at 0.95. Also, in experiment [3], the “relative abundance of fragment by integrated ion current” value is on record as “most abundantly identified fragment” and the “Normalized Ion Current” value turned out to be 234.8.

Regarding “P.KGAAGEPGKAGERGVPGPPGAVGPAGKDGEAGAQGPPGP.A: FAP cleavage fragment, 100 kDa recombinant human gelatin”, in experiment [2], the Occurences was determined as 1 and the Percentage is 0.48.

Take “P.AGRPGEVGPPGPPGP.A: FAP cleavage fragment, 100 kDa recombinant human gelatin”: in experiment [2], the Occurences is 11 and the Percentage was 5.24.

“P.VGVQGPPGP.A: FAP cleavage fragment, 100 kDa recombinant human gelatin”: in experiment [2], the Occurences worked out at 3 and the Percentage turned out to be 1.43.

With “P.AGPPGPIGNVGAPGAKGARGSAGPPGATGFPGAAGRVGPPGP.S: FAP cleavage fragment, 100 kDa recombinant human gelatin”, in experiment [2], the Occurences turned out to be 3 and the Percentage was 1.43.

Consider “A.GPPGAPGAPGAPGP.V: FAP cleavage fragment, 100 kDa recombinant human gelatin”, for which, in experiment [2], the Occurences is given as 1 and the Percentage stood at 0.48.

In the case of “A.PGAPGPVGPAGKSGDRGETGP.A: FAP cleavage fragment, 100 kDa recombinant human gelatin”, in experiment [2], the Occurences was determined as 2 and the Percentage stood at 0.95.

Take “P.PGAPGAPGAPGPVGPAGKSGDRGETGP.A: FAP cleavage fragment, 100 kDa recombinant human gelatin”: in experiment [2], the Occurences was found to be 2 and the Percentage turned out to be 0.95.

In the case of “V.GPPGPPGPP.G: FAP cleavage fragment, 100 kDa recombinant human gelatin”, in experiment [2], the Occurences worked out at 2 and the Percentage amounted to 0.95.

“P.AGPPGEAGKPGEQGVPGDLGAPGP.S: FAP cleavage fragment, 100 kDa recombinant human gelatin”: in experiment [2], the Occurences came out at 6 and the Percentage was 2.86.

With “A.GPAGPPGP.I: FAP cleavage fragment, 100 kDa recombinant human gelatin”, in experiment [2], the Occurences came out at 1 and the Percentage is 0.48.

As to “P.AGPKGEPGSPGENGAPG.Q: FAP cleavage fragment, 100 kDa recombinant human gelatin”, in experiment [2], the Occurences amounted to 1 and the Percentage is 0.48.

On to “G.PPGPAGAPGDKGESGP.S: FAP cleavage fragment, 100 kDa recombinant human gelatin”, for which, in experiment [2], the Occurences was determined as 3 and the Percentage is on record as 1.43.

“A.PGAPGAPGPVGPAGKSGDRGETGP.A: FAP cleavage fragment, 100 kDa recombinant human gelatin”: in experiment [2], the Occurences is listed as 4 and the Percentage is reported as 1.90.

As to “P.AGPPGFPGAVGAKGEAGP.Q: FAP cleavage fragment, 100 kDa recombinant human gelatin”, in experiment [2], the Occurences came to 2 and the Percentage is 0.95.

With “P.QGFQGPPGEPGEPGASGP.M: FAP cleavage fragment, 100 kDa recombinant human gelatin”, in experiment [2], the Occurences is 2 and the Percentage came out at 0.95.

On to “P.AGNPGADGQPGAKGANGAPGIAGAPGFPGARGP.S: FAP cleavage fragment, 100 kDa recombinant human gelatin”, for which, in experiment [2], the Occurences is 4 and the Percentage was found to be 1.90.
